Data: US20230159643A1 (H LUNDBECK A S, published 2023)

Tests used:
Assay in all cases: BLI Octet 384RED, antibody on Protein A sensor, Sortilin construct in solution
[1] = target: T1, Sortilin SORTECDBAP_tetra (tetraodon)
T1 construct: Fully tetraodon Sortilin ECD with BAP tag; also called tetraodon Sortilin
T1 chain: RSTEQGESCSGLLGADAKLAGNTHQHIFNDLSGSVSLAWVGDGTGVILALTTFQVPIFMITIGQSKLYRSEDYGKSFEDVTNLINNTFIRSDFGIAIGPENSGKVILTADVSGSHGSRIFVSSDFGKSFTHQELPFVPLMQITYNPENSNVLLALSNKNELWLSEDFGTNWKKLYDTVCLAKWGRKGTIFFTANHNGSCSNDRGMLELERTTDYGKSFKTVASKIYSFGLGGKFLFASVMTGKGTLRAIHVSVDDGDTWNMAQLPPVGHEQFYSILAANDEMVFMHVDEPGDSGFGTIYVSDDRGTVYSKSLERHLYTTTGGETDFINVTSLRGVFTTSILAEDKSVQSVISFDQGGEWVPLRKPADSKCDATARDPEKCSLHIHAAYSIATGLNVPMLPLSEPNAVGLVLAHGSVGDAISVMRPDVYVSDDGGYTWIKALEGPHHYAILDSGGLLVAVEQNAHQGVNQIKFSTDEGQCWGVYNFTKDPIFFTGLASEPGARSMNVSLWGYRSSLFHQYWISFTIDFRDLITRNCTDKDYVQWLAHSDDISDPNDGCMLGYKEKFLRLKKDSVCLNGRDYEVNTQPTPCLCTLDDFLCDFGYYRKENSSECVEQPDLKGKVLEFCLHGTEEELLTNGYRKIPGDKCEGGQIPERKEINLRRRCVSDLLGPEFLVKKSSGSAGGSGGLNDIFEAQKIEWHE
Procedure: (§1) Binding kinetics of anti-Sortilin HuMab antibodies to Sortilin were determined using Octet 384RED (Fortebio, Menlo Park, USA). HuMab solutions of 2 μg/ml were made by dilution in sample diluent (ForteBio, art. No. 18-5028). Prot A sensors (ForteBio, art. no. 18-0004) were prewetted with kinetics buffer (1:10 sample diluent in PBS) for at least 600 seconds. Subsequently sensors were immobilized with HuMab solution for 600 seconds. A baseline response was obtained by dipping in kinetics buffer for 120 seconds. Association of SORTECD constructs was performed during a 1000 seconds incubation. This was followed by dissociation in kinetics buffer for 100 seconds. After dissociation, sensors were regenerated (10 mM Glycine pH 1.0) and neutralized (kinetics buffer) 3 times for 5 seconds. […] A molecular weight of 76.8 kDA was used for SORTECDHis. Data was fitted with ForteBio Analysis 6.4 software, using a global full fit.

[2] = target: T2, Sortilin SORTECDBAP_hB06-10 (human/tetraodon chimera)
T2 construct: Shuffle construct
T2 chain: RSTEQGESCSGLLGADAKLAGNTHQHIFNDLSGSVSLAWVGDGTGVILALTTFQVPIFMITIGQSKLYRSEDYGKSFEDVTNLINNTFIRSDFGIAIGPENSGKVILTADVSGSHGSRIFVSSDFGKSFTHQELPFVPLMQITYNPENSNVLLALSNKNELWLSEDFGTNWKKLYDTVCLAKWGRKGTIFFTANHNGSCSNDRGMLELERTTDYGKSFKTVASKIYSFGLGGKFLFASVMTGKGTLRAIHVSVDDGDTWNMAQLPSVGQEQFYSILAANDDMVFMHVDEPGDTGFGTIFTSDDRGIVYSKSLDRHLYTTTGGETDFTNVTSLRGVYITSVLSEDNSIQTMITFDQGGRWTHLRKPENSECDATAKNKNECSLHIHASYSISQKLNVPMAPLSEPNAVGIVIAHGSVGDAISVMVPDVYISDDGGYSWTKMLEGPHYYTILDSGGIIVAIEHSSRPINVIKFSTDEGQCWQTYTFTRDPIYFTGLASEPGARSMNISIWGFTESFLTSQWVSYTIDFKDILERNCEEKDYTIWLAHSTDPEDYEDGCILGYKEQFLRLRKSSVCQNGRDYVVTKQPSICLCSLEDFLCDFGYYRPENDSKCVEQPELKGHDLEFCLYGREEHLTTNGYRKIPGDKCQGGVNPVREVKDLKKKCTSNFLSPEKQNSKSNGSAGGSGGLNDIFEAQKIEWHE
Procedure: as §1

[3] = target: T3, Sortilin hSORTECDBAP (human, UniProt Q99523 78-755, biotinylated on the BAP tag by co-expression of biotin ligase)
T3 construct: Soluble extracellular region (ECD, aa 1-755) with BAP tag
T3 sequence: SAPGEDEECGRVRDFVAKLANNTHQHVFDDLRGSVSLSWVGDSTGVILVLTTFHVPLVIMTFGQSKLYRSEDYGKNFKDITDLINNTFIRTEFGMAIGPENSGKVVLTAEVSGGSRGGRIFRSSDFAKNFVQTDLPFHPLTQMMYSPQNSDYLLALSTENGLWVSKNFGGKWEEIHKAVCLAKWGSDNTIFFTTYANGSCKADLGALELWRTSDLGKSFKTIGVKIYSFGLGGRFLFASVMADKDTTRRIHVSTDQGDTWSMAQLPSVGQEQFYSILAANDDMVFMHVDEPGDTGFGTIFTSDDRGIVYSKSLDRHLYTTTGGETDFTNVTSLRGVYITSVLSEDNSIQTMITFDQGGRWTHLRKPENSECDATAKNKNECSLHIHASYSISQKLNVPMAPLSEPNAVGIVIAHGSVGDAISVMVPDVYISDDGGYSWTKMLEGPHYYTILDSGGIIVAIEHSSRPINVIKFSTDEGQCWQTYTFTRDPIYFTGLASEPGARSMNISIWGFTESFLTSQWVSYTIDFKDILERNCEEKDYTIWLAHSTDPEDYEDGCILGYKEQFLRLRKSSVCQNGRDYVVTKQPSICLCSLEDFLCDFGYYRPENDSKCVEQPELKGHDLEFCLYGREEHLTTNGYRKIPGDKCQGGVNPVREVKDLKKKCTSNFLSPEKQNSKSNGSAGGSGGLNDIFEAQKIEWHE
Procedure: as §1

binding result [1]: no binding (tested: 10 µg/ml construct)
EC50 [2]: 0.0554 µg/mL
EC50 [3]: 0.0191 µg/mL
B1: 1320 (antibody, V domains shown)
VH: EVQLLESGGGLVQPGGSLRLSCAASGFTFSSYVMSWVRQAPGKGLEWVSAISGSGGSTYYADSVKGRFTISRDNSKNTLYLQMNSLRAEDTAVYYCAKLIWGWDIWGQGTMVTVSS
VL: EIVLTQSPATLSLSPGERATLSCRASQSVSSYLAWYQQRPGQAPRLLIYDASNRATGIPARFSGSGSGTDFTLSISSLEPEDFAVYYCQQRTNWSITFGQGTRLEIK
notes: also called IgG1-6003-1320; Antibody 1320
